The values below come from paper PMC11087589, “Molecular basis of bacterial DSR2 anti-phage defense and viral immune evasion” (Nature Communications, 2024).

B1: Bacillus subtilis DSR2 (defense-associated sirtuin 2), wild type, His-tagged, purified alone (enzyme, UniProt P0DXN8 1-1005, looked up)
chain: MVKVDLESKRYGEKLKEVFLMLDNNVVECIKEITESSRNGKLVFFVGAGVSTLSDYPQWWRLVDKYHEELYGSPKKGNYSSDEYLRIPQIFYNVKGEMAFDGILKDFFQVDKPTNPIHDKILAMNPAHVITTNYDNLIDTACWKRGKYFSVISAEEDVANATSSRYLLKVHGDFRKGFKGENVVLKEDDYLNYDQNYPLISNLMKTIIATHTIVFIGYGLGDYNINMLLNWVRKLQKDSFHKPFFIRTDPSPIENETLIYYENKGLRIIDAASLIDSNEYDYLERYSAVMDLLIESQENKFITKDDEVIDYIYGKISPLFALQYIRKIDLKHVFEYDYHFEVNGTVVRHKNKGFGYMERFFELKESCDERSKLSKKQYERFNALFNFFEKNGVICMAKDAGTLNTSIEINSLAYHGKYDVMKKFIEEQSVSIEDDYKKAFFLACLGRWEESYDLYSNIILNSIDESNGCVYYLSQINRYRIYQSITQAVTQFNGLGLLTFGRHYKPFTDEFLARIEREMTNFNIDDLFNGMPFEFQKKYKILEFLSDNQFLYDDTVKLFELTNKVRSEMSEGSYSFGMSSDIVVLLRLYDNLRFLYENCLWSVSFHEFHQYIRNSMSLLIEKAEYERTRDIDELGFSFFGKKSGFFMEYYDFVNISRHFKIDDIKNLERSCSIDKIRFGEQEKIEEYLVGIAEEITKQFSANGMNVVFYTQFISEAKAALYFAKYVKLSEEGLGKIVKALLFYFPERDLDIGKRYVWLERLTKCNELPKSIISIIDDFLVLQAEKHIDQNYSEVSSNGLYSRDYGALIKHFEKNFISKRLSEITLCLTQDKQKQIDFLFKLLPLLSTNAKSHLLSFKSVENINDLMNGIRIGLIDEFTPEHEELIIEYLETRKVNYIVEKEKGIQTFSSNDYMSTFGIWYFLEEINNSKMEEFIGMDDQYDFFVDPENFDYKKFIPSWLKNYNDKLLGKIAGNKHMKHHVIEVLKERVKNSNDKRYLEILMNYFI
notes: Homo-tetramer by cryo-EM and SEC; Cloned into pCDFDuet (BamHI/XhoI); the methods call it His-tagged; also called apo DSR2; apo DSR2 tetramer; source: E. coli BL21(DE3), purified (Ni-NTA, gel filtration on Superdex 200 Increase)
B2: DSR2^H171A, catalytic mutant, co-expressed with His6-SUMO-Tube (enzyme, Bacillus subtilis, UniProt P0DXN8 1-1005, looked up)
chain: B1 chain with H171A
notes: source: E. coli BL21(DE3), co-expressed with His6-SUMO-Tube; in lysate (pull-down) and purified as the complex (Ni-NTA, Hitrap Q, gel filtration)
B3: DSR2^I259S/Y260G (enzyme, Bacillus subtilis, UniProt P0DXN8 1-1005, looked up)
chain: B1 chain with I259S, Y260G
notes: Dimer by SEC; also called I259S/Y260G mutant; mutant with disruption at the tetrameric interface; source: E. coli BL21(DE3), purified by a protocol similar to that of the wild type
B4: Phage tail tube protein from Siphoviridae SPR, His6-SUMO-tagged (natural protein, Siphoviridae SPR (phage))
chain: MKTVIQDTADVYFKRKSDGKLVFTAEAQTASFSQAISEEKLRGGIGNKPLYILKSEKEINLTVKNAFFDLEWLAMTQGETIQEETKVKVFDREHGLIVDDTNKVTLKGKPVSDVTFYNKKGLTYKIAVSTDGTYTIPTAFAAAKDKLTAVYQIEKVGRRLAIKASKFSERYEVEYRTIAYNPDTEEVYSDIYIQFPNVSPSGEFEMSLENGNALAPEIKFEALADTDTDEMAVVIEASRDENTAAPVEDTTGSTQSSDLGGTTE
notes: Purified alone it is a hexamer and filaments of hexamers; in the complex with DSR2^H171A it is a monomer at each corner (4:4); The methods say that His6-SUMO-Tube was purified directly, without removal of the tag; also called His6-SUMO-Tube; HisSUMO-Tube; source: E. coli BL21(DE3); not shown: His6, N-terminal, kept; SUMO, N-terminal, kept

Data set [1] concerns the target DSAD1 (DSR anti-defense 1) from Siphoviridae SPbeta, His6-SUMO-tagged, co-expressed with DSR2 (Siphoviridae SPbeta (phage)) (UniProt Q796A8). In words: cryo-EM structure; DSR2-DSAD1 complex co-expressed and purified, 1.2 mg/mL; 3.49 Å after focus refinement.
Data set [2] has as its target Bacillus subtilis DSR2, wild type, co-expressed with His6-SUMO-DSAD1 (Bacillus subtilis). The data set is described as above.
Data set [3] concerns the molecule itself. Put plainly: cryo-EM structure; apo DSR2 tetramer, 1.5 mg/mL, 4.15 Å after focus refinement.
Data set [4] concerns the molecule itself. In words: SEC; oligomeric state of purified DSR2, its mutants and the DSR2^H171A-Tube complex; Superdex 200 Increase 10/300 GL, 25 mM Tris-HCl pH 7.5, 150 mM NaCl.
The target in data set [5] is B4. In words: cryo-EM structure; DSR2^H171A-Tube complex co-expressed and purified, 2 mg/mL, 1 mM NAD+ added; 3.58 Å, local refinement 3.08 Å. The conditions noted are these: both partners purified.
Data set [6] deals with the molecule itself. In words: SEC + other: cryo-EM 2D class averages; purified His6-SUMO-Tube alone.

Residue numbers refer to the chain shown, from its start. Names and notes keep the numbering of the source.

In data set [1], “Bacillus subtilis DSR2, wild type, co-expressed with His6-SUMO-DSAD1 (enzyme)” displayed a stoichiometry N (DSAD1:DSR2 (2:4)) of 0.5. The same molecule showed a stoichiometry N in data set [2] of 4.

Turning to B1, the “stoichiometry N” value in data set [3] is 4.

Take B2: the entries for the “stoichiometry N” value in data set [4] and in data set [5] were 4 and 1 DSR2:Tube (4:4), respectively.

Regarding B3, the “stoichiometry N” value in data set [4] came to 2.

Regarding B4, in data set [6], the “stoichiometry N” value amounted to 6.
